This series is described as follows: protein stability index of a GFP-peptide fusion (GPS, HEK-293T) (PSI 1-6); higher = more stable.
The mark [1] stands for this setting: treatment: DMSO, c terminus: a fixed tail appended.
Where [2] appears, read: treatment: MLN4924 1 uM, 8 h, c terminus: a fixed tail appended.

± gives the standard deviation.
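Note: 24-mer peptide tiles fused after GFP, lentivirally expressed, FACS-sorted into six equal bins by GFP/DsRed ratio, decoded by Illumina sequencing, PSI is the read-weighted mean bin number.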

Sequence GWSTPPKCRSTISAEKCGPPPPID [CFHR2] showed a protein stability index under setting [1] of 3.72 ± 0.38 and a protein stability index under setting [2] of 3.93 ± 0.25.

LAEIRCDLERQNQEYQVLLDVRAR [KRT34]: the protein stability index under setting [1] came to 3.57 ± 0.17 and the protein stability index under setting [2] is 3.59 ± 0.13.

SGDDKNSNYFSMDSMEGKRSPYAG [TRIM29]: the protein stability index by setting is: under setting [1], 4.5 ± 0.25; under setting [2], 4.61 ± 0.24.

In the case of VSGGSRSLNMSRRDSESTRHDSET [PHTF1], the protein stability index is, setting by setting: under setting [1], 5.25 ± 0.26; under setting [2], 5.5 ± 0.14.

DKPLMPYMRYSRKVWDQVKASNPD [SMARCE1]: the protein stability index runs as follows: under setting [1], 3.27 ± 0.53; under setting [2], 3.44 ± 0.17.

Consider VAREYYSEADASHCIQQILEAVLH [CAMK2B], for which the protein stability index runs as follows: under setting [1], 2.29 ± 0.3; under setting [2], 2.87 ± 0.49.

On to DLSMKGGASTTSTTPSALSGEPPT [NOL4L], for which the protein stability index worked out at 5.16 ± 0.32 under setting [1] and 5.28 ± 0.28 under setting [2].

Take THNIAHGSLGFEPVYVSCIAQDTC [SPAG8]: the protein stability index runs as follows: under setting [1], 2.69 ± 0.14; under setting [2], 2.64 ± 0.2.

Regarding RQSGDRRQLPPPPTPANEERRGGL [WAS], the protein stability index came out at 5.42 ± 0.16 under setting [1] and 5.23 ± 0.068 under setting [2].

For GVADFSATYLRCQLLLIKALQEKL [INTS4], the protein stability index is, setting by setting: under setting [1], 2.77 ± 0.42; under setting [2], 2.65 ± 0.48.

On to GAGAEESELQAYIAQCQDSPTSGK [MCOLN1], for which the protein stability index by setting is: under setting [1], 5.41 ± 0.14; under setting [2], 5.45 ± 0.17.

For the sequence GASFTQKGNLLRHIKLHSGEKPFK [IKZF1], the protein stability index by setting is: under setting [1], 3.77 ± 0.23; under setting [2], 3.72 ± 0.28.

The sequence QYWPSRGTETHGLVQVTLLDTVEL [PTPRD] showed a protein stability index under setting [1] of 2.13 ± 0.17 and a protein stability index under setting [2] of 2.23 ± 0.49.

Take GENSDGCYEHFAELDIPQSVQQNG [CLPTM1]: the protein stability index runs as follows: under setting [1], 5 ± 0.33; under setting [2], 5.01 ± 0.32.

For GVNTVFHCASPPPSSNNKELFYRV [NSDHL], the protein stability index turned out to be 2.53 ± 0.23 under setting [1] and 2.4 ± 0.1 under setting [2].

Regarding RHLERKAWVANFERPRMNANSLLA [CRY1], the protein stability index reads like this: under setting [1], 2.49 ± 0.27; under setting [2], 3.1 ± 0.15.

The sequence CIGQRRFHTMDELVEHYKKAPIFT [NCK2] registered a protein stability index under setting [1] of 2.54 ± 0.2 and a protein stability index under setting [2] of 2.65 ± 0.38.

On to RLGWQQQAELQELEERLQLQFEAE [MTUS2], for which the protein stability index turned out to be 4.55 ± 0.24 under setting [1] and 4.65 ± 0.11 under setting [2].

In the case of GYSSLDQSPDEKPLVALDTDSDDD [FAM219A], the protein stability index is, setting by setting: under setting [1], 5.69 ± 0.17; under setting [2], 5.48 ± 0.31.

With QRQAPGPARDYSQYYRTIEELQNK [KRT17], the protein stability index by setting is: under setting [1], 4.07 ± 0.15; under setting [2], 4.12 ± 0.063.

As to RAGKMLMTLPLLRQTSTKAVQHFY [ESRRG], the protein stability index is 2.28 ± 0.31 under setting [1] and 2.16 ± 0.37 under setting [2].

For the sequence IHFIAVAVCLLGVGTMVGADILAG [SLC35F2], the protein stability index runs as follows: under setting [1], 2.8 ± 0.18; under setting [2], 3.31 ± 0.45.

For NVEHYQELKKMVQQSDLGQYVTFL [ALG2], the protein stability index was determined as 2.27 ± 0.12 under setting [1] and 2.43 ± 0.27 under setting [2].

For the sequence ARKQDMNTKRAIHTLAVMNDRLYA [KLHL14], the protein stability index amounted to 2.55 ± 0.24 under setting [1] and 2.93 ± 0.36 under setting [2].

RRPHELLPVGGRLPGPTRPVLGRR [HAGHL] showed a protein stability index under setting [1] of 4.67 ± 0.16 and a protein stability index under setting [2] of 4.92 ± 0.4.

On to ATDGARPQALPEPMQESKAEGNNQ [CHGA], for which the protein stability index was determined as 5.67 ± 0.18 under setting [1] and 5.76 ± 0.11 under setting [2].

As to LARGIHVAGILSLLLGTAYSFYLF [POMT2], the protein stability index was determined as 2.6 ± 0.62 under setting [1] and 2.65 ± 0.47 under setting [2].

In the case of QMPPVIVETARSHQRSSSESYTQS [PI4K2A], the protein stability index by setting is: under setting [1], 4.6 ± 0.28; under setting [2], 4.72 ± 0.16.

Turning to EAQTSGKERLLLSAAVPAGQTYVD [CHIT1], the protein stability index came to 4.15 ± 0.41 under setting [1] and 4.3 ± 0.26 under setting [2].

DIVEFVCKSGYHPTKSHSFRAMCQ [CFHR2]: the protein stability index amounted to 2.49 ± 0.7 under setting [1] and 2.09 ± 0.18 under setting [2].

For the sequence YEADCLAAAYGGKAAPAAPPAARP [CEBPB], the protein stability index by setting is: under setting [1], 4.49 ± 0.15; under setting [2], 4.6 ± 0.2.

Take GGACPAFLPSLRPPPLTSPSHGSL [NCF4]: the protein stability index turned out to be 3.59 ± 0.092 under setting [1] and 3.71 ± 0.28 under setting [2].

Turning to AVLGGFLYAVGGQDGVSCLNIVER [KLHL20], the protein stability index is, setting by setting: under setting [1], 2.16 ± 0.45; under setting [2], 2.55 ± 0.47.

With LSRDTVQESYENVDSLESHIPSQE [ZNF263], the protein stability index stood at 5.26 ± 0.13 under setting [1] and 5.41 ± 0.13 under setting [2].

FAIGVCTGLVGLFVDFFVRLFTQL [CLCN6]: the protein stability index under setting [1] amounted to 2.65 ± 0.52 and the protein stability index under setting [2] was determined as 2.32 ± 0.56.

As for SEGLHLAGTAGHPPSGSQPLTSTQ [FBF1], the protein stability index runs as follows: under setting [1], 5.07 ± 0.17; under setting [2], 4.96 ± 0.23.

In the case of QSSKRSSRSVEDDKEGHLVCRIGD [CLK3], the protein stability index reads like this: under setting [1], 5.3 ± 0.43; under setting [2], 5.17 ± 0.25.

In turn, DFALHYCLHHVHYLATEYLETHFR [GAN] returned a protein stability index under setting [1] of 3.08 ± 0.24 and a protein stability index under setting [2] of 3.11 ± 0.23.

With CYNCEEEAMYHCCWNTSYCSIKCQ [ZMYND11], the protein stability index by setting is: under setting [1], 2.61 ± 0.52; under setting [2], 2.79 ± 0.47.

As for PYDLHLRSQSLTMQDELNAVFHN [NEUROD6], the protein stability index is 3.44 ± 0.22 (treatment: DMSO, c terminus: native) and 3.71 ± 0.15 (treatment: MLN4924 1 uM, 8 h, c terminus: native).

Turning to QLDKNSEVYQEVQAMFDTLGIPKS [FAM98B], the protein stability index worked out at 3.11 ± 0.69 under setting [1] and 3.66 ± 0.59 under setting [2].

On to MEPGGARLRLQRTGGLGGERERQP [SOAT2], for which the protein stability index turned out to be 4.58 ± 0.12 under setting [1] and 4.65 ± 0.21 under setting [2].

As for IDQWSMLGDMQTAREGAGLVVASG [KLHL12], the protein stability index by setting is: under setting [1], 3.36 ± 0.15; under setting [2], 3.52 ± 0.051.

In the case of FSRAGISEAQLTDAETSKLIYDFI [WAS], the protein stability index runs as follows: under setting [1], 2.57 ± 0.2; under setting [2], 2.95 ± 0.29.

The sequence FRGRRDVSGSWERDQQVEAAQRAL [RETREG3] registered a protein stability index under setting [1] of 4.48 ± 0.27 and a protein stability index under setting [2] of 4.28 ± 0.23.

Regarding EKSVLKEVSHPFLIRLFWTWHDER [PRKX], the protein stability index is, setting by setting: under setting [1], 2.56 ± 0.29; under setting [2], 2 ± 0.32.

Take QQSDLGQYVTFLRSFSDKQKISLL [ALG2]: the protein stability index reads like this: under setting [1], 2.22 ± 0.24; under setting [2], 2.29 ± 0.23.

In the case of AEGIGSTVFRAILDYYKTGIIRCP [BTBD10], the protein stability index reads like this: under setting [1], 2.12 ± 0.42; under setting [2], 1.99 ± 0.2.

Turning to MSYFGEHFWGEKNHGFEVLYHSVK [FCHO1], the protein stability index is, setting by setting: under setting [1], 2.59 ± 0.24; under setting [2], 2.11 ± 0.16.

For the sequence VVRYLLEQRADPNAKAHCGATALH [FEM1B], the protein stability index is, setting by setting: under setting [1], 2.23 ± 0.21; under setting [2], 2.34 ± 0.18.

For the sequence REISETEAKALLKERQKKDNHNLI [TFE3], the protein stability index is, setting by setting: under setting [1], 5 ± 0.23; under setting [2], 5.1 ± 0.16.

Take HKLQEEKAFREEMKIFREKIEDFR [CCDC70]: the protein stability index by setting is: under setting [1], 3.38 ± 0.3; under setting [2], 3.61 ± 0.31.

As for LRPTLLLTSLHHFMHSRNLYILGN [PNLIPRP1], the protein stability index is 3.08 ± 0.31 under setting [1] and 3.13 ± 0.81 under setting [2].

Regarding YYSDKYDDEEFEYRHVMLPKDIAK [CKS1B], the protein stability index is, setting by setting: under setting [1], 3.81 ± 0.12; under setting [2], 3.91 ± 0.14.

With CLTLATAVVQLYLALPPGAEHWTK [WAS], the protein stability index came out at 2.85 ± 0.87 under setting [1] and 2.77 ± 0.28 under setting [2].

For the sequence ALMHVMQKRSRAIHSSDEGEDQAG [WAS], the protein stability index reads like this: under setting [1], 4.25 ± 0.27; under setting [2], 4.49 ± 0.13.

On to HKPKNSEELYKEIDGVATTRYSVA [PTPRD], for which the protein stability index runs as follows: under setting [1], 4.43 ± 0.17; under setting [2], 4.66 ± 0.21.

On to GKPPTAHLDRTSVSSLSEVEEVDM [ELOA2], for which the protein stability index by setting is: under setting [1], 5.51 ± 0.11; under setting [2], 5.41 ± 0.29.

With SPEPPSLYGALNPQYEFKEAAGSF [IRX6], the protein stability index runs as follows: under setting [1], 3.47 ± 0.24; under setting [2], 3.6 ± 0.22.

As to DYPYSPPTFRFLTKMWHPNIYENG [UBE2R2], the protein stability index came to 2.21 ± 0.41 under setting [1] and 2.3 ± 0.13 under setting [2].

Regarding SIQKLSNESRYMIYEFWENSSVWN [NECAB1], the protein stability index came out at 2.15 ± 0.45 under setting [1] and 2.01 ± 0.3 under setting [2].

For LASRNPCPWHYLHLSGSHNTLAPT [RSPH3], the protein stability index stood at 2.41 ± 0.14 under setting [1] and 2.45 ± 0.16 under setting [2].

For KQLIYRVRRTDDTPVVLVGNKSDL [RIT1], the protein stability index was found to be 3.06 ± 0.26 under setting [1] and 3.23 ± 0.23 under setting [2].

Take YETVAAATSESTTVEPGKLDVGAT [DRICH1]: the protein stability index amounted to 5.36 ± 0.2 under setting [1] and 5.43 ± 0.32 under setting [2].

On to TPMNHQKAVNDETCKASHITSSVF [FBXO34], for which the protein stability index came out at 3.75 ± 0.075 under setting [1] and 3.77 ± 0.1 under setting [2].

Take ALVYSITAQSTFNDLQDLREQILR [RAP1B]: the protein stability index amounted to 2.27 ± 0.33 under setting [1] and 2.42 ± 0.4 under setting [2].

LSVEADINGLRRVLDELTLARADL [KRT17]: the protein stability index by setting is: under setting [1], 2.66 ± 0.26; under setting [2], 3.04 ± 0.43.

Regarding IRLGIEGYPTYKEKVKKRPGGRPE [BTBD10], the protein stability index reads like this: under setting [1], 3.41 ± 0.54; under setting [2], 3.42 ± 0.41.

In the case of GSRSNGMWAHSMTVQDYQDLIDRG [ATE1], the protein stability index under setting [1] stood at 3.92 ± 0.29 and the protein stability index under setting [2] is 4.08 ± 0.29.

As for VGDALEEVLSKALSQRTITVGVYE [GADD45A], the protein stability index reads like this: under setting [1], 2.54 ± 0.19; under setting [2], 2.47 ± 0.56.

On to EELAYLKKNHEEEMKEFSSQLAGQ [KRT15], for which the protein stability index is, setting by setting: under setting [1], 5.22 ± 0.41; under setting [2], 5.05 ± 0.28.

As for SGADTAKCGIHSMFPLHLAALNAH [ANKRD44], the protein stability index runs as follows: under setting [1], 2.07 ± 0.29; under setting [2], 2.36 ± 0.11.

These data come from the supplement of paper PMC10567573.
